B1: Pistol ribozyme (parent)
chain: GGGUCGUUGUUCCAUAAUCGCGUGGAUAUGGCACGCAAGUUUCUACCGGGCACCGUAAAUGUCCGACUGGAGCCGUUCGGGCGGCUAUAAACAGACCUCAGGCCCGAAGCGUGGCGGCACCUGCCGCCGGUGGUAAAAAAGAUCGGAAGAGCACACGUCU

Variants of B1 are the subject of the series. Description: aptazyme ON/OFF ratio, guanine; higher = stronger switching; co-transcriptional cleavage with and without guanine.
On to U7G U8A U10C U11A C12U C13A, for which the “aptazyme ON/OFF ratio” value was found to be 1.3.

For U7C U8G G9A U10G U11G C13G, the “aptazyme ON/OFF ratio” value was found to be 1.39.

Take U7A U8C G9A U11G C12G C13U: the “aptazyme ON/OFF ratio” value turned out to be 1.15.

For U11A C13G, the “aptazyme ON/OFF ratio” value turned out to be 1.12.

In the case of U7A U8C U10A U11G, the “aptazyme ON/OFF ratio” value was determined as 1.17.

U7A U8G G9A U10C C12G C13G: the “aptazyme ON/OFF ratio” value came to 1.38.

Turning to U8C U11A C12A, the “aptazyme ON/OFF ratio” value worked out at 1.34.

Turning to U8C U11A C12U, the “aptazyme ON/OFF ratio” value came out at 1.19.

As for U7C U8G G9C U11A C13G, the “aptazyme ON/OFF ratio” value came to 1.06.

Regarding U7G U8A U10A C12U, the “aptazyme ON/OFF ratio” value amounted to 1.18.

For the variant U7G U8G U10G C12U C13U, the “aptazyme ON/OFF ratio” value stood at 1.32.

For the variant U7C U8G G9U U10C U11C C12A, the “aptazyme ON/OFF ratio” value is 1.07.

Regarding U7A U8G G9C U10G U11G C12A C13U, the “aptazyme ON/OFF ratio” value was 1.22.

Consider U7G U8G G9C U11A C12G C13G, for which the “aptazyme ON/OFF ratio” value was 1.07.

U7C G9U U10A U11G C12A: the “aptazyme ON/OFF ratio” value was 1.08.

Consider U7A U8G U10C C12G, for which the “aptazyme ON/OFF ratio” value came out at 1.12.

For G9A U10C C13U, the “aptazyme ON/OFF ratio” value worked out at 1.23.

As for U8C U10G C12U C13A, the “aptazyme ON/OFF ratio” value is 1.21.

On to U7A U8C G9A U10G U11C C12U C13G, for which the “aptazyme ON/OFF ratio” value was found to be 1.2.

For U7A U8A G9C U10C C12A, the “aptazyme ON/OFF ratio” value is 1.03.

For U8G G9A U10G U11C C13G, the “aptazyme ON/OFF ratio” value came out at 1.05.

Regarding U8A U10G C12G, the “aptazyme ON/OFF ratio” value amounted to 1.29.

With U7A U8G G9C C12A C13G, the “aptazyme ON/OFF ratio” value was determined as 1.16.

For U8C G9C U10C U11A, the “aptazyme ON/OFF ratio” value was found to be 1.02.

For U7A G9A U10A U11G C13A, the “aptazyme ON/OFF ratio” value amounted to 1.29.

Regarding U7G G9A U10A U11C C12G C13G, the “aptazyme ON/OFF ratio” value stood at 1.1.

As to U8A U10G U11C C12A, the “aptazyme ON/OFF ratio” value was 1.49.

U7G U8G G9U U11A C12G C13G: the “aptazyme ON/OFF ratio” value was 1.06.

In the case of U7C U8C G9C U10G C12G, the “aptazyme ON/OFF ratio” value came to 1.1.

Turning to U7C U8A G9U U10C U11G C12U C13A, the “aptazyme ON/OFF ratio” value amounted to 1.12.

As to U7A U8G U11G C12G C13G, the “aptazyme ON/OFF ratio” value was found to be 1.32.

Take U7C U10A U11G C12G: the “aptazyme ON/OFF ratio” value stood at 1.18.

For U7G G9U U10C U11A C12U, the “aptazyme ON/OFF ratio” value worked out at 1.8.

Turning to U7A U8A G9C U10A U11C C13A, the “aptazyme ON/OFF ratio” value stood at 1.07.

In the case of U8C G9A U10A U11A C12U C13U, the “aptazyme ON/OFF ratio” value was determined as 1.19.

With U7G U8G U10G U11G C12U C13G, the “aptazyme ON/OFF ratio” value is 1.13.

U8A G9A U10A U11C C12G: the “aptazyme ON/OFF ratio” value amounted to 1.13.

As for U7A U8C U10G C12G C13U, the “aptazyme ON/OFF ratio” value worked out at 1.19.

In the case of G9C U11C C12U, the “aptazyme ON/OFF ratio” value amounted to 1.14.

For the variant U7C U8C U10C U11A C12A, the “aptazyme ON/OFF ratio” value came out at 1.31.

Take U8G G9A U10C C12U C13G: the “aptazyme ON/OFF ratio” value turned out to be 1.08.

Take U8G G9A U10G U11A C13G: the “aptazyme ON/OFF ratio” value was 1.21.

U7G G9C U10C U11A C12A C13A: the “aptazyme ON/OFF ratio” value came out at 1.21.

With U7G U8C U10G C12A, the “aptazyme ON/OFF ratio” value stood at 1.33.

For the variant U7A U10C U11C C12A C13A, the “aptazyme ON/OFF ratio” value is 1.06.

U7C U8G U10A U11C C12A C13A: the “aptazyme ON/OFF ratio” value is 1.14.

Regarding U7G U8G G9U U10G U11G C13A, the “aptazyme ON/OFF ratio” value was found to be 1.06.

In the case of U7G U8A U10A C12A C13G, the “aptazyme ON/OFF ratio” value came to 1.3.

With U7G U8A G9U U10A U11A C12G, the “aptazyme ON/OFF ratio” value worked out at 1.05.

For the variant U7A U10C U11G, the “aptazyme ON/OFF ratio” value is 1.25.

With U7C U10G U11G, the “aptazyme ON/OFF ratio” value was found to be 1.23.

As to U7G G9A U10C U11A C13U, the “aptazyme ON/OFF ratio” value came to 1.19.

U7G U8A G9U U10G C12A C13G: the “aptazyme ON/OFF ratio” value was 1.03.

G9U U11G C13G: the “aptazyme ON/OFF ratio” value is 1.21.

As to U7C U8G G9U U10G C12G C13A, the “aptazyme ON/OFF ratio” value was determined as 1.07.

Regarding U7C G9A U10C U11A C12U C13A, the “aptazyme ON/OFF ratio” value is 1.21.

On to U7A U8G G9C U11G C12G C13A, for which the “aptazyme ON/OFF ratio” value was 1.1.

Take U7G G9U U10C U11G C12U: the “aptazyme ON/OFF ratio” value stood at 1.49.

For the variant U7C U8C G9A U10C U11A C12A, the “aptazyme ON/OFF ratio” value is 1.51.

On to U7C U8A G9C U10A U11G C12U C13G, for which the “aptazyme ON/OFF ratio” value amounted to 1.08.

In the case of U7A U11G C12U C13A, the “aptazyme ON/OFF ratio” value was determined as 1.15.

U8A G9U U10G U11C C12G: the “aptazyme ON/OFF ratio” value is 1.07.

As for U7A U8C G9C U10G U11G C12G C13G, the “aptazyme ON/OFF ratio” value worked out at 1.13.

For the variant U7A U8C U10G C12A C13U, the “aptazyme ON/OFF ratio” value was determined as 1.15.

Turning to U8G G9U U10G C12G, the “aptazyme ON/OFF ratio” value is 1.02.

For U7G U10A C12U C13U, the “aptazyme ON/OFF ratio” value was found to be 1.25.

For U7A U8A G9A U10A U11G C12A, the “aptazyme ON/OFF ratio” value is 1.04.

In the case of U8G G9C U11C C12G, the “aptazyme ON/OFF ratio” value was 1.04.

For the variant U7A G9C U11C C12G C13A, the “aptazyme ON/OFF ratio” value came to 1.07.

On to U7A G9A U10G U11C C12G C13U, for which the “aptazyme ON/OFF ratio” value is 1.1.

Regarding U7G U8A U10C U11C C13G, the “aptazyme ON/OFF ratio” value was 1.05.

Turning to U7C U8G G9C U10A U11C C13G, the “aptazyme ON/OFF ratio” value was 1.04.

Take U7A U8C G9A C12U C13U: the “aptazyme ON/OFF ratio” value was found to be 1.1.

For the variant U8G U10C U11C C12U C13A, the “aptazyme ON/OFF ratio” value turned out to be 1.14.

For U7A U8C U10C U11A C13G, the “aptazyme ON/OFF ratio” value turned out to be 1.16.

With U10A, the “aptazyme ON/OFF ratio” value amounted to 1.15.

U7G U10G U11G C13U: the “aptazyme ON/OFF ratio” value came to 1.2.

In the case of U7A U8C G9C U10G C13G, the “aptazyme ON/OFF ratio” value was found to be 1.09.

As for U7C U8A U10A U11A C12U C13G, the “aptazyme ON/OFF ratio” value is 1.35.

With U7G U8A G9C U10A C12G C13A, the “aptazyme ON/OFF ratio” value came to 1.04.

In the case of U7A U8C G9C U10A C12G C13U, the “aptazyme ON/OFF ratio” value turned out to be 1.17.

For the variant U7C U8C U10A U11G C12G C13A, the “aptazyme ON/OFF ratio” value amounted to 1.25.

For U7A U8G G9A U10C, the “aptazyme ON/OFF ratio” value was determined as 2.9.

As to U7A U8A G9U U10A U11G C13U, the “aptazyme ON/OFF ratio” value was 1.19.
